Series [1] is described as follows: folding stability dG unfold from trypsin proteolysis; higher = more stable. In short, it runs like this: (§1)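 Designed mini-proteins (under 80 residues, no cysteine) in a PA-tagged cDNA display construct were digested with trypsin and chymotrypsin. Each protease was used at 11 concentrations (threefold dilutions) plus a no-protease condition, followed by sequencing. K50 was inferred by Bayesian fitting of sequencing counts, and unfolding free energy was derived against a sequence-predicted unfolded-state K50 and a shared folded-state K50, per protease or combined. Only designs with AlphaFold2 dimer inter-PAE above 15 were kept.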

Series [2] in a line: folding stability dG unfold from chymotrypsin proteolysis; higher = more stable. In short, it runs like this: as §1
The nature of series [3]: folding stability dG unfold (combined trypsin and chymotrypsin); higher = more stable. In short, it runs like this: as §1

± gives the half width of the 95% confidence interval.

As for “SAGGSERTIMIPVEPGMSPEQIADEIKAILRELGPGRPIEIDDVHPGGWVKIKINNKPIKIHIMWPSAGGSA [r2_102_TrROS]”, the “folding stability dG unfold” value in series [1] was found to be 1.31 ± 0.038 kcal/mol; in series [2], 1.3 ± 0.081 kcal/mol; in series [3], 1.32 ± 0.1 kcal/mol.

In the case of “SAGGSETVEIELGSEDGTVYKIEIERFPETGLLLIKVDGPDPKVIEKVVKELGVDVVEVLEDGYVLLASAGG [r13_937_TrMRF]”, the “folding stability dG unfold” value came to 1.45 ± 0.059 kcal/mol in series [1], 1.89 ± 0.05 kcal/mol in series [2] and 1.78 ± 0.065 kcal/mol in series [3].

In the case of “SAGGSEVVLEAEGVDPATGKPYTVRVVYDKETGVPVVEVRDADGTLLAVIPVPPDKALEALKELGVSAGGSA [r2_115_TrMRF]”, the figures for the “folding stability dG unfold” value in series [1], in series [2] and in series [3] were 2.92 ± 0.08 kcal/mol, 3.046 ± 0.013 kcal/mol and 2.99 ± 0.067 kcal/mol, respectively.

For “SAGGSFDPVEITTLEDGTIKILAKDPNTNKLFITTLKAKSIKTSSLGNGKTITTIPHEKVEESEELPSAGGS [r16_615_JUSTAS]”, the “folding stability dG unfold” value was -0.795 ± 0.66 kcal/mol in series [1], -0.0729 ± 0.51 kcal/mol in series [2] and -0.554 ± 0.67 kcal/mol in series [3].

Turning to “SAGGSFEFKAEVFYDKEKDIYYVKIPYILKNTGKIIPIVKKVKAGDPIPVEKLAEKIAKELEELGISAGGSA [r2_221_TrMRF]”, the “folding stability dG unfold” value in series [1] amounted to 0.357 ± 0.079 kcal/mol; in series [2] it was 1.89 ± 0.066 kcal/mol; in series [3] it was 1.36 ± 0.1 kcal/mol.

On to “SAGGSFEVEVEVERYPEENYYYVKIPIRLPNNGKKIPLDVPVPADDPEPAEKWAKFIAKELAKQGISAGGSA [r2_221_TrROS]”, for which the “folding stability dG unfold” value was -0.0866 ± 0.14 kcal/mol in series [1], -0.1 ± 0.27 kcal/mol in series [2] and -0.1 ± 0.23 kcal/mol in series [3].

In the case of “SAGGSFHDLAKELAKKRGLKKVSINMHPEDNSMNINIQNPEKGRPVQGNIPMEDMTPETVLDQIENILESAG [r5_896_TrROS]”, the “folding stability dG unfold” value in series [1] was -1.04 ± 0.69 kcal/mol; in series [2] it was 0.297 ± 0.28 kcal/mol; in series [3], -0.0716 ± 0.24 kcal/mol.

Take “SAGGSFVVIEPTADGVRIVLEDDGALREVPVSPEVAAALAANPDLEGVVRSLLPEGHPIERIAAVPGSAGGS [r16_567_TrMRF]”: the entries for the “folding stability dG unfold” value in series [1], in series [2] and in series [3] were -0.755 ± 0.24 kcal/mol, -0.476 ± 0.17 kcal/mol and -0.451 ± 0.2 kcal/mol, respectively.

“SAGGSGEVRPLELEFTLPNGAKIKITLHVYPDGTVKVEARIEFGGEYLELRFEFEGEKVPLDFPDFGSAGGS [r16_523_TrMRF]”: the “folding stability dG unfold” value in series [1] was found to be 3.58 ± 0.13 kcal/mol; in series [2], 3.73 ± 0.11 kcal/mol; in series [3], 3.73 ± 0.2 kcal/mol.

For the sequence “SAGGSGIEAAILEAVEKGLNPVELTFRLPEDGKLVVLKVEVLDVLDGGAIVKVEMEVYDPENPKKISAGGSA [r2_420_TrMRF]”, the “folding stability dG unfold” value is 1.06 ± 0.089 kcal/mol in series [1], 2.14 ± 0.063 kcal/mol in series [2] and 1.83 ± 0.1 kcal/mol in series [3].

Turning to “SAGGSGMIKTETTVTITFPGGETVSFPATVTYDPETGKTEVEVNLPEAALAELKERAPDAEVNVLLSAGGSA [r2_409_JUSTAS]”, the “folding stability dG unfold” value in series [1] was determined as 1.76 ± 0.032 kcal/mol; in series [2] it was 0.681 ± 0.014 kcal/mol; in series [3] it was 1.29 ± 0.046 kcal/mol.

Take “SAGGSGMIYVIKIKLEPTIKPGKKKEFEFELVLEATPEEIEEVLEKIKKLPKNIKIKEIKIEVFPESAGGSA [r2_75_TrMRF]”: the “folding stability dG unfold” value in series [1] turned out to be 2.08 ± 0.12 kcal/mol; in series [2], 3.18 ± 0.073 kcal/mol; in series [3], 2.6 ± 0.32 kcal/mol.

“SAGGSGMMLEEGVGVDPTTGELHRFTYLREPERPPVEVTVTTTTVVYTTPDGTTVTVTTTTTLEGGSAGGSA [r2_326_JUSTAS]”: the figures for the “folding stability dG unfold” value in series [1], in series [2] and in series [3] were 0.671 ± 0.047 kcal/mol, 0.786 ± 0.27 kcal/mol and 0.789 ± 0.13 kcal/mol, respectively.

As to “SAGGSGMTTTFSKEVSSKEEAEKIFKRGFPDLNAKVTKFDPKKGTVEIELTFPDGKKSKATAPIKKSAGGSA [r2_201_JUSTAS]”, the “folding stability dG unfold” value in series [1] is -0.569 ± 0.58 kcal/mol; in series [2], 0.0996 ± 0.5 kcal/mol; in series [3], -0.225 ± 0.37 kcal/mol.

For the sequence “SAGGSGSTTPETRTEPSPGGTTTEVRTDVHTLPDAETVEITVTRGGRTITLTASPAEAATLRVTPGASAGGS [r8_257_JUSTAS]”, the figures for the “folding stability dG unfold” value in series [1], in series [2] and in series [3] were -0.555 ± 0.61 kcal/mol, -0.614 ± 0.62 kcal/mol and -0.436 ± 0.51 kcal/mol, respectively.

Regarding “SAGGSIELPLEEGSTAEVELELRVPFYRLDANGRPVAPEERTLRIRARFTRLPDGRVLVEVEVEVESAGGSA [r2_154_TrMRF]”, the “folding stability dG unfold” value in series [1] was determined as 4.46 ± 0.17 kcal/mol; in series [2], 5.24 ± 0.1 kcal/mol; in series [3], 4.98 ± 0.13 kcal/mol.

In the case of “SAGGSIPADTVATLTLPDRDLAVRVELVDGTPRYLVTGPDGTPVGTLTPEEFAAFVAALPADARLDLRSAGG [r13_657_JUSTAS]”, the entries for the “folding stability dG unfold” value in series [1], in series [2] and in series [3] were 0.7 ± 0.032 kcal/mol, 1.32 ± 0.081 kcal/mol and 1.15 ± 0.068 kcal/mol, respectively.

Turning to “SAGGSIPLSDIKDIEIHPWRHPNNNYPMYRIRIDNGRDMVIFPGAIFEFDPDDGKIEEVKPMPFGDSAGGSA [r2_374_TrROS]”, the “folding stability dG unfold” value in series [1] amounted to 0.165 ± 0.22 kcal/mol; in series [2], 0.222 ± 0.22 kcal/mol; in series [3], 0.238 ± 0.14 kcal/mol.

In the case of “SAGGSIPPGARVETLEVVTSSSSDGTVTTTTLTRVTSPEDSVSERTRTTTDPVVPPPATPTNPVSLASAGGS [r8_90_JUSTAS]”, the “folding stability dG unfold” value is -0.0164 ± 0.079 kcal/mol in series [1], 0.804 ± 0.06 kcal/mol in series [2] and 0.507 ± 0.053 kcal/mol in series [3].

Turning to “SAGGSISIPVYSPEDVIEAIEFIERYLREKGFPENEEATRIIVERLEDGRYRVIIEYPTRTIIIDDSAGGSA [r2_120_TrMRF]”, the “folding stability dG unfold” value amounted to 2.9 ± 0.049 kcal/mol in series [1], 3.09 ± 0.033 kcal/mol in series [2] and 3.01 ± 0.067 kcal/mol in series [3].

For “SAGGSITKTLGTEEKGDKTITYSVTTSPEGKITFTTTTKTPSGSGTSTTTTTTTTPLAGLPLPPLGGSAGGS [r8_458_JUSTAS]”, the “folding stability dG unfold” value in series [1] was 0.473 ± 0.042 kcal/mol; in series [2], 0.831 ± 0.18 kcal/mol; in series [3], 0.717 ± 0.19 kcal/mol.

Take “SAGGSKDLEIKITKIKEWDPPNGKQTIRIPIEVYDPENGKPRPPAEELADELQKRFPGMPIKVEPVSAGGSA [r2_27_TrROS]”: the entries for the “folding stability dG unfold” value in series [1], in series [2] and in series [3] were -0.416 ± 0.29 kcal/mol, 0.863 ± 0.028 kcal/mol and 0.441 ± 0.14 kcal/mol, respectively.

For the sequence “SAGGSKEKFLTIEHPDYVIKAYVDYPKEGKLRVRIEIYDKNGKLLKTIEVEAYSPEEVLEFLEKAASAGGSA [r2_82_TrMRF]”, the “folding stability dG unfold” value was 2.48 ± 0.1 kcal/mol in series [1], 3.28 ± 0.13 kcal/mol in series [2] and 3.05 ± 0.14 kcal/mol in series [3].

As to “SAGGSKELKPGDIITFPKSVSEEEIKEKVKELMEKYGIKGIISIEKKSPNSYIVKIEYPDGNPLAISAGGSA [r2_168_JUSTAS]”, the “folding stability dG unfold” value is 2.1 ± 0.074 kcal/mol in series [1], 1.34 ± 0.081 kcal/mol in series [2] and 1.72 ± 0.15 kcal/mol in series [3].

For the sequence “SAGGSKERTYRVLIRNPDGELEEIEVSEEELEALLSLPPSATVRIVTEDGEEKTVTINVEKVELKESAGGSA [r2_222_TrROS_Hall]”, the “folding stability dG unfold” value in series [1] is 1.74 ± 0.11 kcal/mol; in series [2], 3.48 ± 0.067 kcal/mol; in series [3], 3.07 ± 0.17 kcal/mol.

As to “SAGGSKFEVEKLPDNTYRFKVPNENGETLEITVEKLPDGAILVTHPSNPKPVLFPASTTIEDLLKKSAGGSA [r2_338_TrMRF]”, the “folding stability dG unfold” value in series [1] was found to be 1.29 ± 0.029 kcal/mol; in series [2] it was 2.22 ± 0.029 kcal/mol; in series [3], 1.95 ± 0.032 kcal/mol.

As to “SAGGSKGKAPVKVRFLFLEDGKVVAEAEVEFEVEVPIPPVPPVFVPEEARKALENGDIEKALKLLGSAGGSA [r2_196_TrMRF]”, the results for the “folding stability dG unfold” value in series [1], in series [2] and in series [3] were 0.827 ± 0.036 kcal/mol, 1.58 ± 0.035 kcal/mol and 1.36 ± 0.13 kcal/mol, respectively.

Values taken from the supplement of paper PMC12764529.
